What was measured:
Assay in all cases: IEDB peptide-MHC binding, purified MHC/competitive/radioactivity; filed as Kd, often an IC50 or EC50 that approximates it; ≥ and ≤ were set here for values at or beyond the usual limits of such assays
[1] = biological target: HLA-A*33:01
[2] = biological target: HLA-A*11:01
[3] = biological target: HLA-A*03:01
[4] = biological target: HLA-A*31:01
[5] = biological target: HLA-A*68:01
[6] = source organism: Vaccinia virus WR
[7] = source organism: Dengue virus 4 Philippines/H241/1956
[8] = source organism: SARS coronavirus Tor2
[9] = source organism: Dengue virus 3 Martinique/1243/1999
[10] = source organism: Dengue virus 2 Jamaica/1409/1983
[11] = source organism: Dengue virus 1 Singapore/S275/1990
[12] = source organism: Mammarenavirus brazilense
[13] = source organism: Dengue virus 1 Brazil/97-11/1997
[14] = source organism: Mammarenavirus guanaritoense
[15] = source organism: Mammarenavirus machupoense
[16] = source organism: Mammarenavirus whitewaterense
[17] = source organism: Vaccinia virus Copenhagen

Sequence: LMHPDFCKNR
- Kd [1, 6]: 254 nM
- Kd [2, 6]: ≥ 24500 nM
- Kd [3, 6]: 13600 nM
- Kd [4, 6]: 16.9 nM
- Kd [5, 6]: 8450 nM

Sequence: LMTLMKGASK
- Kd [3, 7]: 273 nM

Sequence: LQGPPGTGK
- Kd [1, 8]: ≥ 77700 nM
- Kd [2, 8]: 40.1 nM
- Kd [3, 8]: 459 nM
- Kd [4, 8]: 1260 nM
- Kd [5, 8]: 10900 nM

Sequence: LQMAGVEVR
- Kd [1, 6]: 6150 nM
- Kd [2, 6]: 5760 nM
- Kd [3, 6]: 13900 nM
- Kd [4, 6]: 218 nM
- Kd [5, 6]: 2380 nM

Sequence: LTLFVEECLR
- Kd [1, 7]: 60.7 nM
- Kd [5, 7]: 56.2 nM

Sequence: MKNKAWMVHR
- Kd [4, 9]: 140 nM

Sequence: MLDTSEKYSK
- Kd [1, 6]: ≥ 70000 nM
- Kd [2, 6]: 107 nM
- Kd [3, 6]: 17300 nM
- Kd [4, 6]: ≥ 22300 nM
- Kd [5, 6]: 4320 nM

Sequence: MLVYCFLGY
- Kd [1, 8]: 7380 nM
- Kd [2, 8]: 120 nM
- Kd [3, 8]: 136 nM
- Kd [4, 8]: 907 nM
- Kd [5, 8]: 1140 nM

Sequence: MSHLKVALYR
- Kd [1, 6]: 66.5 nM
- Kd [2, 6]: 100 nM
- Kd [3, 6]: 609 nM
- Kd [4, 6]: 2.25 nM
- Kd [5, 6]: 31.2 nM

Sequence: MSTYGWNLVR
- Kd [5, 10]: 24.9 nM

Sequence: MVDVSMMSMY
- Kd [1, 6]: ≥ 30600 nM
- Kd [2, 6]: 2040 nM
- Kd [3, 6]: 2330 nM
- Kd [4, 6]: ≥ 23900 nM
- Kd [5, 6]: 148 nM

Sequence: NAILHNIYR
- Kd [1, 6]: 1.82 nM
- Kd [2, 6]: 1360 nM
- Kd [3, 6]: ≥ 36100 nM
- Kd [4, 6]: 5.17 nM
- Kd [5, 6]: 0.565 nM

Sequence: NIISRTRLY
- Kd [1, 6]: 10200 nM
- Kd [2, 6]: 1020 nM
- Kd [3, 6]: 375 nM
- Kd [4, 6]: 3910 nM
- Kd [5, 6]: 879 nM

Sequence: NLKSLLLENK
- Kd [1, 6]: 2160 nM
- Kd [2, 6]: 63.4 nM
- Kd [3, 6]: 88.8 nM
- Kd [4, 6]: 1060 nM
- Kd [5, 6]: 137 nM

Sequence: NMKPNFWSR
- Kd [1, 6]: 1.06 nM
- Kd [2, 6]: ≥ 34700 nM
- Kd [3, 6]: ≥ 78000 nM
- Kd [4, 6]: 0.349 nM
- Kd [5, 6]: 208 nM

Sequence: NMLNIMNRR
- Kd [1, 11]: 13.3 nM
- Kd [4, 11]: 5350 nM

Sequence: NVKHTSVSAK
- Kd [1, 6]: 8280 nM
- Kd [2, 6]: 3350 nM
- Kd [3, 6]: 519 nM
- Kd [4, 6]: 10300 nM
- Kd [5, 6]: 502 nM

Sequence: QFNQMMNPSH
- Kd [1, 12]: ≥ 70000 nM
- Kd [2, 12]: ≥ 69700 nM
- Kd [3, 12]: ≥ 70000 nM
- Kd [4, 12]: ≥ 20200 nM
- Kd [5, 12]: ≥ 70100 nM

Sequence: QLLMPLKAPK
- Kd [1, 8]: 2290 nM
- Kd [2, 8]: 146 nM
- Kd [3, 8]: 100 nM
- Kd [4, 8]: 134 nM
- Kd [5, 8]: 1530 nM

Sequence: QMRTPLHKY
- Kd [1, 6]: ≥ 77700 nM
- Kd [2, 6]: 1760 nM
- Kd [3, 6]: 141 nM
- Kd [4, 6]: 7830 nM
- Kd [5, 6]: ≥ 77700 nM

Sequence: QTMLFTMLR
- Kd [1, 8]: 1.24 nM
- Kd [2, 8]: 1.81 nM
- Kd [3, 8]: 43.5 nM
- Kd [4, 8]: 0.162 nM
- Kd [5, 8]: 2.61 nM

Sequence: QTVNICIFY
- Kd [1, 6]: 10500 nM
- Kd [2, 6]: 39.9 nM
- Kd [3, 6]: 828 nM
- Kd [4, 6]: 839 nM
- Kd [5, 6]: 1.96 nM

Sequence: RIMQRGLLGR
- Kd [3, 11]: 5.56 nM
- Kd [4, 11]: 1.16 nM

Sequence: RNKKPRICTR
- Kd [4, 13]: ≥ 70000 nM

Sequence: RSIAMLKSK
- Kd [1, 6]: ≥ 77700 nM
- Kd [2, 6]: 3.11 nM
- Kd [3, 6]: 216 nM
- Kd [4, 6]: 1500 nM
- Kd [5, 6]: 637 nM

Sequence: RSKIEVGIRH
- Kd [1, 14]: ≥ 70000 nM
- Kd [2, 14]: ≥ 29000 nM
- Kd [3, 14]: 13700 nM
- Kd [4, 14]: 1630 nM
- Kd [5, 14]: ≥ 22200 nM

Sequence: RTELGVEFLK
- Kd [1, 8]: 15900 nM
- Kd [2, 8]: 52.4 nM
- Kd [3, 8]: 962 nM
- Kd [4, 8]: 1350 nM
- Kd [5, 8]: 9720 nM

Sequence: SFIISTLNK
- Kd [1, 6]: 8110 nM
- Kd [2, 6]: 5.35 nM
- Kd [3, 6]: 57.4 nM
- Kd [4, 6]: 5.1 nM
- Kd [5, 6]: 9.98 nM

Sequence: SLFYTFAISY
- Kd [1, 6]: ≥ 31800 nM
- Kd [2, 6]: 9.18 nM
- Kd [3, 6]: 3.62 nM
- Kd [4, 6]: 5780 nM
- Kd [5, 6]: 1320 nM

Sequence: SLIKTILASY
- Kd [1, 6]: ≥ 43300 nM
- Kd [2, 6]: 1050 nM
- Kd [3, 6]: 97.5 nM
- Kd [4, 6]: 4570 nM
- Kd [5, 6]: 1730 nM

Sequence: SNIQFNISK
- Kd [1, 15]: 10900 nM
- Kd [2, 15]: 12.2 nM
- Kd [3, 15]: 4910 nM
- Kd [4, 15]: 1740 nM
- Kd [5, 15]: 15 nM

Sequence: SRLFEDLVWK
- Kd [1, 16]: ≥ 70000 nM
- Kd [2, 16]: 1270 nM
- Kd [3, 16]: 661 nM
- Kd [4, 16]: 8590 nM
- Kd [5, 16]: 605 nM

Sequence: SSKIRWIVER
- Kd [1, 7]: 389 nM
- Kd [4, 7]: 17.1 nM

Sequence: SSMLNIMNR
- Kd [2, 13]: 10.4 nM
- Kd [4, 13]: 11800 nM
- Kd [5, 13]: 7.35 nM

Sequence: SSSLDQTHIK
- Kd [1, 17]: ≥ 26000 nM
- Kd [2, 17]: 4.92 nM
- Kd [3, 17]: 90 nM
- Kd [4, 17]: 868 nM
- Kd [5, 17]: 850 nM

Sequence: STAWLCALGK
- Kd [1, 8]: 9430 nM
- Kd [2, 8]: 0.35 nM
- Kd [3, 8]: 21.6 nM
- Kd [4, 8]: 271 nM
- Kd [5, 8]: 4.8 nM

Sequence: SYTQVCDHR
- Kd ([1]; source organism: Dengue virus 1 Nauru/West Pac/1974): 43.2 nM

Sequence: TAASAAQRR
- Kd [5, 9]: 24.9 nM

Sequence: TAMAFHLTTR
- Kd [1, 10]: 18.4 nM
- Kd [4, 10]: 9.04 nM
- Kd [5, 10]: 8.55 nM

Sequence: TAVAPSMTMR
- Kd [5, 10]: 18.8 nM

Sequence: TSADLTVEK
- Kd [2, 9]: 185 nM
- Kd [5, 9]: 15.5 nM

Sequence: TSIFAGHLK
- Kd [2, 9]: 39.1 nM
- Kd [5, 9]: 4.3 nM

Sequence: TTRLENIMWK
- Kd [2, 7]: 271 nM

Sequence: TTRLENVMWK
- Kd ([2]; source organism: Dengue virus 4 Dominica/814669/1981): 590 nM

Sequence: VSIMIEEVMR
- Kd [5, 13]: 202 nM

Sequence: VTCAMFTCKK
- Kd [2, 10]: 97.7 nM
- Kd [3, 10]: 86.7 nM

Reference: the Immune Epitope Database (IEDB)
